In US10246721B2, “Sugar transporters” (CARNEGIE INSTITUTION OF WASHINGTON, priority 2009, dated 2019):

B1: GLUE8: Arabidopsis sugar transporter protein expressed in the tapetum, paralog of SWEET1 (protein, UniProt Q8LFH5 1-239, looked up)
Bidirectional sugar …: MVDAKQVRFIIGVIGNVISFGLFAAPAKTFWRIFKKKSVEEFSYVPYVATVMNCMLWVFYGLPVVHKDSILVSTINGVGLVIELFYVGVYLMYCGHKKNHRRNILGFLALEVILVVAIILITLFALKGDFVKQTFVGVICDVFNIAMYGAPSLAIIKVVKTKSVEYMPFLLSLVCFVNAGIWTTYSLIFKIDYYVLASNGIGTFLALSQLIVYFMYYKSTPKEKTVKPSEVEISATERV
B2: GLUE13: Arabidopsis GLUE/SWEET sugar transporter protein (protein, UniProt Q9FGQ2 1-294, looked up)
Bidirectional sugar …: MALTNNLWAFVFGILGNIISFVVFLAPVPTFVRICKKKSTEGFQSLPYVSALFSAMLWIYYAMQKDGTAFLLITINAFGCVIETIYIVLFVSYANKKTRISTLKVLGLLNFLGFAAIVLVCELLTKGSTREKVLGGICVGFSVSVFAAPLSIMRVVVRTRSVEFMPFSLSLFLTISAVTWLFYGLAIKDFYVALPNVLGAFLGAVQMILYIIFKYYKTPVAQKTDKSKDVSDHSIDIAKLTTVIPGAVLDSAVHQPPALHNVPETKIQLTEVKSQNMTDPKDQINKDVQKQSQV
B3: GLUE4: Arabidopsis GLUE/SWEET sugar transporter protein (protein, UniProt Q944M5 1-251, looked up)
Bidirectional sugar …: MVNATVARNIAGICGNVISLFLFLSPIPTFITIYKKKKVEEYKADPYLATVLNCALWVFYGLPMVQPDSLLVITINGTGLAIELVYLAIFFFFSPTSRKVKVGLWLIGEMVFVGIVATCTLLLFHTHNQRSSFVGIFCVIFVSLMYIAPLTIMSKVIKTKSVKYMPFSLSLANFLNGVVWVIYALIKFDLFILIGNGLGTVSGAVQLILYACYYKTTPKDDEDEEDEENLSKVNSQLQLSGNSGQAKRVSA
B4: GLUE7: Arabidopsis GLUE/SWEET sugar transporter protein (protein, UniProt Q8LBF7 1-258, looked up)
Bidirectional sugar …: MVFAHLNLLRKIVGIIGNFIALCLFLSPTPTFVRIVKKKSVEEYSPIPYLATLINCLVWVLYGLPTVHPDSTLVITINGTGILIEIVFLTIFFVYCGRQKQRLIISAVIAAETAFIAILAVLVLTLQHTTEKRTMSVGIVCCVFNVMMYASPLSVMKMVIKTKSVEFMPFWLSVAGFLNAGVWTIYALMPFDPFMAIPNGIGCLFGLAQLILYGAYYKSTKRIMAERENQPGYVGLSSAIARTGSEKTANTNQEPNNV
B5: GLUE5: Arabidopsis GLUE/SWEET sugar transporter protein (protein, UniProt Q9FM10 1-240, looked up)
Bidirectional sugar …: MTDPHTARTIVGIVGNVISFGLFCAPIPTMVKIWKMKSVSEFKPDPYVATVLNCMMWTFYGLPFVQPDSLLVITINGTGLFMELVYVTIFFVFATSPVRRKITIAMVIEVIFMAVVIFCTMYFLHTTKQRSMLIGILCIVFNVIMYAAPLTVMKLVIKTKSVKYMPFFLSLANFMNGVVWVIYACLKFDPYILIPNGLGSLSGIIQLIIYITYYKTTNWNDDDEDKEKRYSNAGIELGQA
B6: GLUE17: Arabidopsis GLUE/SWEET sugar transporter protein (protein, UniProt Q84WN3 1-241, looked up)
Bidirectional sugar …: MAEASFYIGVIGNVISVLVFLSPVETFWKIVKRRSTEEYKSLPYICTLLGSSLWTYYGIVTPGEYLVSTVNGFGALVETIYVSLFLFYAPRHLKLKTVDVDAMLNVFFPIAAIVATRSAFEDEKMRSQSIGFISAGLNIIMYGSPLSAMKTVVTTKSVKYMPFWLSFFLFLNGAIWAVYALLQHDVFLLVPNGVGFVFGTMQLILYGIYRNAKPVGLSNGLSEIAQDEEEGLTSRVEPLLS
B7: GLUE3: Arabidopsis GLUE/SWEET sugar transporter protein (protein, UniProt Q6NQN5 1-263, looked up)
Bidirectional sugar …: MGDKLRLSIGILGNGASLLLYTAPIVTFSRVFKKKSTEEFSCFPYVMTLFNCLIYTWYGLPIVSHLWENLPLVTINGVGILLESIFIFIYFYYASPKEKIKVGVTFVPVIVGFGLTTAISALVFDDHRHRKSFVGSVGLVASISMYGSPLVVMKKVIETRSVEYMPFYLSFFSFLASSLWLAYGLLSHDLFLASPNMVATPLGILQLILYFKYKNKKDLAPTTMVITKRNDHDDKNKATLEFVVDVDRNSDTNEKNSNNASSI
B8: GLUE16: Arabidopsis GLUE/SWEET sugar transporter protein (protein, UniProt Q9LUR4 1-230, looked up)
Bidirectional sugar …: MADLSFYVGVIGNVISVLVFLSPVETFWRIVQRRSTEEYECFPYICTLMSSSLWTYYGIVTPGEYLVSTVNGFGALAESIYVLIFLFFVPKSRFLKTVVVVLALNVCFPVIAIAGTRTLFGDANSRSSSMGFICATLNIIMYGSPLSAIKTVVTTRSVQFMPFWLSFFLFLNGAIWGVYALLLHDMFLLVPNGMGFFLGIMQLLIYAYYRNAEPIVEDEEGLIPNQPLLA
B9: GLUE14: Arabidopsis GLUE/SWEET sugar transporter protein (protein, UniProt Q9SW25 1-281, looked up)
Bidirectional sugar …: MVLTHNVLAVTFGVLGNIISFIVFLAPVPTFVRICKKKSIEGFESLPYVSALFSAMLWIYYALQKDGAGFLLITINAVGCFIETIYIILFITYANKKARISTLKVLGLLNFLGFAAIILVCELLTKGSNREKVLGGICVGFSVCVFAAPLSIMRVVIRTKSVEFMPFSLSLFLTISAITWLFYGLAIKDFYVALPNILGAFLGAVQMILYVIFKYYKTPLVVDETEKPKTVSDHSINMVKLSSTPASGDLTVQPQTNPDVSHPIKTHGGDLEDQMDKKMPN

Tested on: HEK293T cells
Test: Glucose transport by GLUE/SWEET coexpressed with FRET glucose sensor (cytosolic or ER) in HEK293T cells
Format: cell-based, human
Settings: ER-targeted sensor FLIPglu600μΔ13V ER
Method: Individual cells were analyzed by quantitative ratio imaging of CFP and Venus emission (acquisition intervals 5 sec; Fc/D corresponds to the normalized emission intensity ratio). HEK293T/FLIPglu600μΔ13V cells were perfused with medium, followed by square pulses of increasing glucose concentrations. […] Cells coexpressing the sensor and SWEET1 accumulated glucose as evidenced by the negative FRET ratio change with an amplitude that correlates with the increasing external glucose supply (blue line). Data points are mean±SD (n>10).
The sensor FLIPglu600μΔ13V^ER was targeted to the lumen of the ER (analysis performed as under FIG. 9A, acquisition intervals 10 sec). […] Cells coexpressing the sensor and SWEET1 accumulated glucose in the ER as evidenced by the negative ratio change induced by perfusion with glucose. Data points are mean±SD (n>10).
By utilizing the above described HEK293T cell system, a novel class of Arabidopsis sugar transporters was identified that are involved in nectar production in plants and with all hallmarks of the glucose transport activity described in root tips. A screening assay was then initiated in which candidate transporter genes from Arabidopsis were coexpressed with the FRET glucose sensor in the HEK293T cell expression system.
FRET analysis. Cell culture, transfection, image acquisition and FRET analysis were performed as described previously.
To identify novel glucose transporters from the reference plant Arabidopsis, genes encoding uncharacterized polytopic membrane proteins from the plant membrane protein database Aramemnon, available on the internet at “aramemnon.botanik.uni-koeln.de”,—were screened using a mammalian expression system. Candidate genes were coexpressed with a high-sensitivity FRET glucose sensor (i.e. FLIPglu600μΔ13V) in human embryonic kidney HEK293T cells, which are characterized by low endogenous glucose uptake activity. […] To determine whether SWEET1 can also mediate efflux from the cytosol, we expressed the FRET glucose sensor FLIPglu600μΔ13V^ER in the lumen of the endoplasmic reticulum (ER; FIG. 9B). Topologically, uptake across the plasma membrane (PM) is initiated from the extracellular side of the carrier, while ‘export’ to the ER is initiated from the cytoplasmic side of the transporter (FIG. 9C). […] SWEET1 may thus function as a glucose uniporter, for which the direction of transport depends only on the glucose gradient across the membrane. […] Furthermore, the mRNAs levels of known human glucose transporters in the GLUT and SGLT families were not induced in HEK293T cells expressing SWEET1 (FIG. 12B). […] In support of a role in cellular uptake and efflux, a constitutively expressed SWEET1-YFP fusion localizes to the PM in Arabidopsis leaves (FIG. 9G). […] Other proteins, possibly related to SWEET1, may be involved in sugar transport in roots.

**Q.** With B1 as the molecule, how does the “glucose efflux from cytosol into the ER” value read?
**A.** The value was “‘efflux’ glucose from the cytosol into the ER”.

Same assay, conditions: cytosolic FRET glucose sensor

**Q.** How did the “glucose accumulation in cytosol (negative FRET ratio change)” value turn out when “GLUE12: Arabidopsis GLUE/SWEET sugar transporter protein” was run?
**A.** Its value is “function as glucose transporters with different activities”.

**Q.** B2 was tested. Which “glucose accumulation in cytosol (negative FRET ratio change)” value did it give?
**A.** The value was “function as glucose transporters with different activities”.

**Q.** B1 was tested. Which “glucose accumulation in cytosol (negative FRET ratio change)” value did it give?
**A.** The value was “function as glucose transporters with different activities”.

Same assay, conditions: cytosolic FRET glucose sensor, listed as SWEET8

**Q.** With B1 as the molecule, how does the “glucose accumulation in cytosol (negative FRET ratio change)” value read?
**A.** Its value is “also functions as a uniporter”.

Tested on: yeast strain YSL2-1
Test: Complementation growth assay of yeast strain YSL2-1/EBY4000 lacking all 18 hexose transporter genes
Format: cell-based
Settings: 2% fructose
Method: Cells expressing yeast homolog, HXTS, or mammalian homolog, GLUT1, were used as controls. Os8N3 and RAG1AP1 were homologs from rice and mammalian. The yeast cells were grown in SD-Ura liquid medium with 2% maltose to early log phase and 5 m of serious dilutions were spotted on the media containing YPM or SD-URA containing 2% of maltose, fructose, or mannose. […]
(§1) Cells expressing yeast homolog, HXT5, or mammalian homolog, GLUT1, were used as controls. Os8N3 and RAG1AP1 were homologs from rice and mammalian. The yeast cells were grown in SD-Ura liquid medium with 2% maltose to early log phase and 5 m of serious dilutions were spotted on the media containing YPM or SD-URA containing 2% glucose.
as §1, with “various 2-Deoxy-glucose levels.” for “2% glucose.”
A modified version of the yeast strain EBY4000 (hxt1 through −17Δ::loxP gal2Δ::loxP stl1Δ::loxP agt1Δ::loxP ydl247wΔ::loxP yjr160cΔ::loxP) carrying a cytosolic invertase (YSL2-1) was transformed with SWEETs and HXTS and grown on SD (synthetic deficient) medium supplemented with 2% maltose and required auxotrophic markers. For complementation growth assays, cells were grown overnight in liquid minimum medium to OD600˜0.6 and then diluted to OD600˜0.2 using water. Serial dilutions (1×, 5×, 25×, and 125×) were plated on SD media containing either 2% maltose (as control) or 2% glucose and the relevant auxotrophic markers. Growth was documented by scanning (CanoScan, Canon) the plates after 2-5 days at 30° C.

**Q.** Which complementation on fructose does the source give for B3 here?
**A.** Its complementation on fructose is “transport fructose”.

**Q.** B4 was tested. Which complementation on fructose did it give?
**A.** The complementation on fructose was “transport fructose”.

Same assay, conditions: 2% glucose

**Q.** B3 was tested. Which “complementation of yeast hexose transport mutant on glucose” value (shortened to “complementation … on glucose”) did it give?
**A.** The value was “transport glucose”.

**Q.** Which “complementation … on glucose” value does the source give for B4 here?
**A.** The value was “transport glucose”.

**Q.** B1 was tested. Which “complementation … on glucose” value did it give?
**A.** Its value is “transport glucose”.

**Q.** Which “complementation … on glucose” value does the source give for B5 here?
**A.** Its value is “transport glucose”.

Same assay, conditions: 2% glucose; listed as SWEET8/RPG1

**Q.** B1 was tested. Which “complementation … on glucose” value did it give?
**A.** Its value is “complements the yeast glucose transport mutant”.

Same assay, conditions: 2% mannose

**Q.** Which complementation on mannose does the source give for B3 here?
**A.** Its complementation on mannose is “transport fructose and mannose”.

**Q.** Which complementation on mannose does the source give for B4 here?
**A.** The complementation on mannose was “transport fructose and mannose”.

**Q.** With B1 as the molecule, how does the complementation on mannose read?
**A.** The complementation on mannose was “transport mannose”.

**Q.** With B5 as the molecule, how does the complementation on mannose read?
**A.** The complementation on mannose was “transport mannose”.

Same assay, conditions: various 2-Deoxy-glucose levels

**Q.** For B6, which “sensitivity to 2-deoxyglucose” value is on record?
**A.** Its value is “transport 2-deoxyglucose”.

**Q.** B3 was tested. Which “sensitivity to 2-deoxyglucose” value did it give?
**A.** Its value is “transport 2-deoxyglucose”.

**Q.** For B4, which “sensitivity to 2-deoxyglucose” value is on record?
**A.** Its value is “transport 2-deoxyglucose”.

**Q.** For B7, which “sensitivity to 2-deoxyglucose” value is on record?
**A.** The value was “transport 2-deoxyglucose”.

**Q.** For B8, which “sensitivity to 2-deoxyglucose” value is on record?
**A.** The value was “transport 2-deoxyglucose”.

**Q.** With B1 as the molecule, how does the “sensitivity to 2-deoxyglucose” value read?
**A.** The value was “transport 2-deoxyglucose”.

**Q.** B5 was tested. Which “sensitivity to 2-deoxyglucose” value did it give?
**A.** The value was “transport 2-deoxyglucose”.

**Q.** With B9 as the molecule, how does the “sensitivity to 2-deoxyglucose” value read?
**A.** The value was “transport 2-deoxyglucose”.
